Results reported in the RNAGym collection of RNA variant scans (doi:10.7554/elife.80360).

B1: HDV Ribozyme (parent)
chain: GGCCGGCAUGGUCCCAGCCUCCUCGCUGGCGCCGGCUGGGCAACAUUCCGAGGGGACCGUCCCCUCGGUAAUGGCGAAUGGGACCCA

Variants of: B1
Test: self-cleavage, relative activity (ratio to wild type); higher = more cleavage; co-transcriptional

Compared with GGCCGGCAUGGUCCCAGCCUCCUCGCUGGCGCCGGAUGGGCAACAUUCCGAGUGGACCGUCCCCUCGGUAAUGGCGAAUGGGACCCA, GGCCGGCAUGGUUCCAGCCUCCUCGCUGGCGCCGGCUGGGUAACAUUCCGAGGGGACCGUCCCCUCGGUAAUGGCGAAUGGGACCCA is higher in self-cleavage: 0.19 for the first, 0.323 for the second.

Compared with GGCCGGCAUGGUACCAGCCUCCUCGCUCGCGCCGGCUGGGCAACAUUCCGAGGGGACCGUCCCCUCGGUAAUGGCGAAUGGGACCCA, GGCCGGCAUGCUCCCAGCCUCCUCGCUGGCGCCGGCUGGGCAACAUUCCGAGGGGACCGUCCCCUCGGUUAUGGCGAAUGGGACCCA is higher in self-cleavage: 0.111 for the first, 0.399 for the second.

Compared with GGCCGGCAUGGUCCCAGCCUCCUCGCUGGCGCCGACUGGGCAACAUUCCGAGGGGACCGUCCCCUAGGUAAUGGCGAAUGGGACCCA, GGCCGGCAUGGUCCCAGCCUCCUCGCUGGCGCCGGCUGGGCAACAUUCCGAGGUGACCGUCCCCUCCGUAAUGGCGAAUGGGACCCA is higher in self-cleavage: 0.415 for the first, 0.694 for the second.

First: GGCCGGCAUGGGCCCAGCCUCCUCGCUAGCGCCGGCUGGGCAACAUUCCGAGGGGACCGUCCCCUCGGUAAUGGCGAAUGGGACCCA
Second: GGCCGGCAUGGGCCCAGCCUCCUCGCUGGCGCCGGCUGGGCAACAUUCCGAGGGGACCGUCCCCUCGGUAAUGGCGAAUGGGACCCG
The self-cleavage of the first is lower: 0 for the first, 0.723 for the second.

First: GGCCGGCAUGGUCUCAGCCUCCUCGCUGCCGCCGGCUGGGCAACAUUCCGAGGGGACCGUCCCCUCGGUAAUGGCGAAUGGGACCCA
Second: GGCCGGCAUGGUCCCAGCCUCCUCGCUGGCGCCGGCUGGGCAACAUUCCGAGGGGACCGUCCCCUCGAUAAUGGCGAAUGGGACCCU
The self-cleavage of the first is lower: 0.0941 for the first, 0.831 for the second.

Compared with GGCCUGCAUGGUCCCAGCCUCCUCGCUGGCGCUGGCUGGGCAACAUUCCGAGGGGACCGUCCCCUCGGUAAUGGCGAAUGGGACCCA, GGCCGGCAUGGUCCCAGCCUCCUCGCUGGCGCCGGCUGGGCAACAUUCCGAGGGGACCGUCCCCUCGGUAACUGCGAAUGGGACCCA is lower in self-cleavage: 0.615 for the first, 0.272 for the second.

First: GGCCGGCAUGGUCCCAGCCUCCUCGCUGGCGCCGGCUGGGCAACGUUCCGAGGGGACCGUCCCCUCGGUAAUGGCGAAUGGGACCCC
Second: GGCCGGCAUGGUCCCAGCCUCCACGCUGGCGCCGGCUGGGCAACAUUCCGAGGGGACCGUCCCCUCGGUAGUGGCGAAUGGGACCCA
The self-cleavage of the first is higher: 1.11 for the first, 0.8 for the second.

Going from GGCCGGCAUGGUCCCAGCCUCCUCGCUGGCGCCGGCUGGGCAACAUUCCGAGGGGACGGUCCCCUUGGUAAUGGCGAAUGGGACCCA to GGCCGGGAUGGUCCCAGCCUCCUCGCUGGCGCCGGCUGGGCAACAUUCCGAGGGGACCGUCCCCUCGGUAAUGUCGAAUGGGACCCA, the self-cleavage falls from 1.01 to 0.0361.

First: GGCCGGCAUGGUCCCAGCCUCCUCGCUGGCGGCGGCUGGGCAACAUUCCGAGGGGACCGUCCCCUCGGUAAUGGCGAAUGGGACCCU
Second: GGCCGGCAUGGUCCCAGCCUCCUUGCUGGCGCCGGCUGGGCAACAUUCCGAGGGGACCGUCCCCUCGGUAAUGGCGAAUGGGACCAA
The self-cleavage of the first is lower: 0.135 for the first, 0.808 for the second.

First: GGCCGGCAUGGUCCCAGCCCCCUCGCUGGCGCCGGCUGGGCAACAUUCCGAGGGGACCGUCCCCGCGGUAAUGGCGAAUGGGACCCA
Second: GGCCGGCAUGGUCCCAGCGUCCUCGCUGGCGCCGGCUGGGCAACAUUCCGAGGUGACCGUCCCCUCGGUAAUGGCGAAUGGGACCCA
The self-cleavage of the first is higher: 0.145 for the first, 0.0594 for the second.

Compared with GGCCGGCAUGGUCCCAGCCUCCUCGCUGGCGCCGGCUGGGCAACAUUCCAAGGGGACCGUCCCCUCGGUAAUGGUGAAUGGGACCCA, GGCCGGCAUGGUCCCAGCCUCCUCGCUGGCGCCGGCUGGGCAACAUUCCGAGCCGACCGUCCCCUCGGUAAUGGCGAAUGGGACCCA is higher in self-cleavage: 0.178 for the first, 0.706 for the second.

First: GGCCGGCAUGGUCCCAGCCUCCUCGCUGGCGCCGGGUGGGCAACAUUCCGAGGGGACAGUCCCCUCGGUAAUGGCGAAUGGGACCCA
Second: GGCCGGCAUGGUCCCAGCCUCCUCGCUGGCGCCGGCUGGGCAACAUUCCGAGGAGACCGUCCCCUCGGUAAUAGCGAAUGGGACCCA
The self-cleavage of the first is lower: 0.201 for the first, 0.394 for the second.

Compared with GGCCGGCAUGGUCCCAGCCUCCUCGCUGGCGCCGGCUCGGCAACAUUCCGAGGGGACGGUCCCCUCGGUAAUGGCGAAUGGGACCCA, GGCCGGCAUGGUCCCAGCCUCCUCGCUGGCGCCGGCUGGGCAACAUUGCGAGUGGACCGUCCCCUCGGUAAUGGCGAAUGGGACCCA is higher in self-cleavage: 0.237 for the first, 0.893 for the second.

Compared with GGCCGGCAUGGUCCCAGCCUCCUCGCUGGCGCCGGCUGGGCAACAUUCCGAGGAGACCGUCCCCUCGGUAAUGGCGAAAGGGACCCA, GGCCGGCAUGGUCCCAGCCUCCUCUCUGGUGCCGGCUGGGCAACAUUCCGAGGGGACCGUCCCCUCGGUAAUGGCGAAUGGGACCCA is lower in self-cleavage: 0.465 for the first, 0.102 for the second.

Compared with GGCCGGCACGGUCCCAGCCUCCUCGCUGGCGCCGGCUGGGCAACAUCCCGAGGGGACCGUCCCCUCGGUAAUGGCGAAUGGGACCCA, GGCCGGCAUGGUCCCAGCCUCCUCGCUGGCGCCGGCUGGGCAACAUUCCGAGGGGACCGUCCACUCGGAAAUGGCGAAUGGGACCCA is lower in self-cleavage: 0.969 for the first, 0.965 for the second.

First: GGCCGGCAUGGUCCCAGCCUCCUCGCUGGCGCCGGCUGGGCAACAUGCCGAGGGGACCGUCCCCUCGGUAAUGGCGAAUGGGACCCG
Second: GGCCGGCAUGGUCCCAGCCUCCGCGCUGGCGCCGGCUGGGCAACAUUCCGAGGGGACCGUCCCCUCGGUACUGGCGAAUGGGACCCA
The self-cleavage of the first is higher: 1.16 for the first, 0.256 for the second.
